Measurements: patent US10077295B2, “Glycoproteins having lipid mobilizing properties and therapeutic uses thereof” (Aston University, priority 2010, dated 2018)

How the values were obtained:
human β2-AR [1] = molecular target: T1, human β2-AR (Homo sapiens, UniProt P07550); assay: [125I] ZAG binding to crude membranes of CHO-K1 β2 cells; conditions: single freeze/thaw cycle
T1 construct: host or cells: CHO-K1
Experimental: [^125I] labelling of ZAG. One iodo bead that had been washed and dried was incubated with Na [^125I] (1 mCi per 100 μg protein) for 5 min in PBS, then ZAG (100 μg protein) was added and left for a further 15 min. The reaction was terminated by removal of the iodo bead, while free Na [^125I] was removed using a Sephadex G25 column eluted with 0.1MNaI. The [^125I] ZAG was concentrated against PBS using a Microcon microconcentrator with a filter cut-off of Mr 10,000. The specific activity of the [^125I] ZAG was 8 Cimg protein^1.
For binding studies cells were sonicated in 2 mM Tris HCl, pH7.5, containing […] and crude total membranes were pelleted by centrifugation (13,000 g; 15 min) at 4° C. Binding studies were carried out at 37° C. by incubating membranes (500 μg protein) in 0.4 ml 50 mM Tris HCl, pH 7.5, containing 0.5 mM MgCl2 for 60 min with various concentrations of [^125I] ZAG (3,000 to 15,000 cpm) in the absence or presence of 100 μM non-labelled ZAG. The membranes were then precipitated by centrifugation at 13000 g for 20 min, the supernatant was removed and the [^125I] bound to the pellet was quantitated using a Packard Corbra Model 5005 Auto-gamma counter. Binding was analysed using non-linear regression analysis (GraphPad Prism, Version 5.04). Specific binding was regarded as the amount of labelled ZAG displaced by non-radioactive ZAG.

[2] = tested on: adipocytes and gastrocnemius muscle of ob/ob mice; assay: Glucose uptake into adipocytes and gastrocnemius muscle of ZAG-treated ob/ob mice; type: in vivo, mouse
Experimental: Glucose Uptake into Adipocytyes. Isolated adipocytes (5×10^4) were washed twice in 1 ml Krebs-Ringer bicarbonate buffer, pH 7.2 (KRBS) and further incubated for 10 min at room temperature in 0.5 ml KRBS containing 18.5 MBq 2-[1-^14C] deoxy-D-glucose and non-radioactive 2-deoxy-D-glucose to a final concentration of 0.1 mM. Uptake was terminated by the addition of 1 ml ice-cold glucose-free KRBS, and the cells were washed three times with 1 ml KRBS, lysed by addition of 0.5 ml 1M NaOH and left for at least 1 h at room temperature before the radioactivity was determined by liquid scintillation counting.
Glucose Uptake into Gastrocnemius Muscle—Gastrocnemius muscles were incubated in Krebs-Henseleit bicarbonate buffer for 45 min at 37° C. and then incubated for a further 10 min in 5 ml Krebs-Henseleit buffer containing 185M Bq 2-[1-^14C] deoxy-D-glucose and non-radioactive 2-deoxy-D-glucose to a final concentration of 0.1 mM. The muscles were then removed and washed in 0.9% NaCl for 5 min followed by dissolution in 0.5 ml 1M NaOH and the radioactivity was determined by liquid scintillation counting.

ob/ob mice = assay: Glucose tolerance test in ob/ob mice after 3 days of ZAG; type: in vivo, mouse
From the text: FIG. 2A is a graphical diagram showing glucose tolerance of ob/ob mice treated with ZAG. Plasma glucose levels in ob/ob mice in the fed state either treated with ZAG (▪) or PBS (♦) for 3 days after […]. p<0.001 from PBS. Blood samples were removed from the tail vein at intervals after glucose administration and used for the measurement of glucose and insulin.
FIG. 2B is a graphical diagram showing plasma insulin levels in ob/ob mice treated with ZAG after oral administration of glucose (1 g/kg). p<0.001 from PBS.
To investigate this, a glucose tolerance test was performed, on fed animals, after 3 days of ZAG administration (FIG. 2A). […] The glucose uptake in gastrocnemius muscle of ZAG treated mice was greater than the response to insulin in non-treated animals.

human β2-AR [3] = molecular target: T1, human β2-AR; assay: Cyclic AMP production in CHO-K1 cells transfected with β2-AR; type: cell-based; conditions: CHO-K1 β2-AR
Experimental: (§1) Binding Studies and Cyclic AMP Determination. CHO-K1 cells transfected with the human β1- and β2-AR obtained from University of Nottingham, UK, while CHOK1 cells transfected with the β3-AR were obtained from Astra Zeneca, Macclesfield, Cheshire, UK. Gene expression was under the control of hygromycin, together with a β-gal reporter construct, selected for resistance to G418. They were maintained in DMEM supplemented with 2 mM glutamine, hygromycin B ([…]), G418 ([…]), and 10% FCS, under an atmosphere of 10% CO2 in air. To determine the effect of agonists on cyclic AMP production, cells were grown in 24-well plates containing 1 ml of nutrient medium.

adipocytes, BAT = assay: Expression of ZAG, HSL, UCP in adipose tissue/adipocytes of mice (5 day ZAG study); type: in vivo, mouse
Experimental: Western Blot Analysis. Freshly excised gastrocnemius muscles were washed in PBS and lysed in PHOSPHOSAFE™ Extraction Reagent for 5 min at room temperature followed by sonication at 4° C. The lysate was cleared by centrifugation at 18,000 g for 5 min at 4° C. and samples of cytosolic protein (5 μg) were resolved on 12% sodium dodecyl sulfate-polyacrylamide gel electrophoresis at 180V for approximately 1 h. This was followed by transference to 0.45 μm nitrocellulose membranes, which were then blocked with 5% Marvel in Tris-buffered saline, pH 7.5, at 4° C. overnight. Both primary and secondary antibodies were used at a dilution of 1:1000 except anti-myosin (1:250). Incubation was for 1 h at room temperature, and development was by ECL. Blots were scanned by a densitometer to quantify differences.
A 5 day study was performed where ZAG was administered at 35 μg per day i.v. on a daily basis for 5 days. At the end of the experiment tissues were removed and blotted, or functional assays were carried out with isolated adipocytes. […] When ep adipocytes were prepared and maintained in tissue culture (RPMI 1640+10% FCS) ZAG expression was maintained for a further 3 days, even though no ZAG was added to the culture medium (FIG. 6B). […] In fact, as discussed above, too much ZAG is more likely to lead to resistance rather than an increased response.

β3-AR = β3-AR (Homo sapiens, UniProt P13945); assay: Cyclic AMP production in CHO-K1 cells transfected with β3-AR; type: cell-based; parameters: host or cells: CHO-K1; conditions: CHO-K1 β3-AR
Chain of β3-AR (P13945 whole entry): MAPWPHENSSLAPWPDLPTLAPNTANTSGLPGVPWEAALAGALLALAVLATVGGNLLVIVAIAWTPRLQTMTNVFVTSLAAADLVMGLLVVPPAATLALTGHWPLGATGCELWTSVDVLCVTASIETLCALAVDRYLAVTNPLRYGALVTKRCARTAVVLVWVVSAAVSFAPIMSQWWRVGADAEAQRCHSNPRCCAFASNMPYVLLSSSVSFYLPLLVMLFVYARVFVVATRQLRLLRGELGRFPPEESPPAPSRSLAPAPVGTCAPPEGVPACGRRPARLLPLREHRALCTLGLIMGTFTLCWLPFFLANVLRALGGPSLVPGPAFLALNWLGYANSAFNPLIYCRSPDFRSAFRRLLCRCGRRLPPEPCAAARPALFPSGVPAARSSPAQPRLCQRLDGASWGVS
Experimental: as §1

B1: ZAG: recombinant full length human zinc-α2-glycoprotein (SEQ ID NO: 1) secreted by transfected HEK293F cells; lipid mobilizing factor (protein, listed as Homo sapiens)
chain: QENQDGRYSLTYIYTGLSKHVEDVPAFQALGSLNDLQFFRYNSKDRKSQPMGLWRQVEGMEDWKEDSQLQKAREDMETLKDIVEYYNDSNGSHVLQGRFGCEIENNRSSGAFWKYYYDGKDYIEFNKEIPAWVPFDPAAQITKQKWEAEPVYVQRAKAYLEEECPATLRKYLKYSKNILDRQDPPSVVVTSHQAPGEKKKLKCLAYDFYPGKIDVHWTRAGQVQEPELRGDVLHNGNGTYQSWVVVAVPPQDTAPYSCHVQHSSLAQPLVVPWEAS
- effect of freeze-thawing on binding to β2-AR (human β2-AR [1]): eliminated binding
- glucose uptake into gastrocnemius muscle ([2]; absence and presence of insulin (100 nM)): significantly enhanced
- glucose uptake into epididymal, visceral and subcutaneous adipocytes ([2]; absence of insulin, ob/ob mice treated 5 days): increased glucose uptake
- blood glucose levels in glucose tolerance test (ob/ob mice; fed ob/ob mice, after 3 days of ZAG): only a small rise
- plasma insulin levels in glucose tolerance test (ob/ob mice; ob/ob mice, 60 min of observation): significantly lower
- concentration required to stimulate cyclic AMP production (human β2-AR [3]): 580 nM
- ZAG expression in epididymal, subcutaneous and visceral fat (adipocytes, BAT; 35 μg per day i.v., 5 days): about two-fold
- time increased response to isoprenaline was maintained in tissue culture without ZAG (adipocytes, BAT; adipocytes from ZAG treated mice, isoprenaline 10 μM): 4 days
- expression of phospho HSL in adipocytes (adipocytes, BAT; adipocytes of non-obese mice, 3 h): increased expression of phospho HSL
- expression of UCP1 and UCP3 in BAT (adipocytes, BAT; ob/ob mice treated 5 days): increased the expression of UCP1
- lowest concentration to stimulate cyclic AMP production (β3-AR): 350 nM
